Reference: patent publication US20250282880A1 (NUMAB THERAPEUTICS, published 2025)
Like-named read-outs stand apart in the source and are kept apart here.

How the values were obtained:
cynomolgus IL-4R-Fc [1] = target: T1, cynomolgus IL-4R-Fc (cynomolgus monkey (Macaca fascicularis), UniProt A0A2K5V580 33-239); assay: SPR, capture setup: cynomolgus IL-4R-Fc captured, scFv as analyte
T1 construct: also called cynomolgus IL-4R (capture setup); not shown: Fc part
Description: (§1) Affinity of the 16 humanized scFvs (derived from 5 rabbit monoclonal antibodies) to human IL-4R was determined by SPR analysis on a T200 device (Biacore, GE Healthcare). Human IL-4R-Fc was captured via an anti-human IgG-Fc coupled to a carboxylmethylated dextran surface and the scFvs were injected as analyte. After each analyte injection cycle the sensor chip was regenerated and new antigen was captured. The scFvs were measured using a dose response multi-cycle kinetic assay with seven analyte concentrations ranging from 0.12 to 90 nM diluted in running buffer. Obtained sensorgrams were fitted using a 1:1 binding model.
(§2) Cross-reactivity to cynomolgus IL-4R was measured using the same setup as for the analysis of human IL-4R affinities, with the difference that cynomolgus IL-4R-Fc was captured instead of human IL-4R-Fc. To determine affinities for marmoset IL-4R, a direct setup was used since only extracellular domain (ECD) of marmoset IL-4R was available. Marmoset ECD was immobilized directly onto the sensor chip and a titration series of scFvs was injected as analyte. To allow for comparison between KD values obtained for cynomolgus and marmoset IL-4R, affinities to cynomolgus IL-4R ECD were also determined using a direct setup.

IL-4R on HEK-Blue cells [2] = target: T2, IL-4R on HEK-Blue cells (human, UniProt P24394 26-825); assay: cell-based or functional assay
cynomolgus IL-4R ECD = target: T3, cynomolgus IL-4R ECD (cynomolgus monkey (Macaca fascicularis), UniProt A0A2K5V556 26-232); assay: SPR, direct setup: cynomolgus IL-4R ECD immobilized, scFv as analyte
T3 construct: immobilized directly on the sensor chip; also called cynomolgus IL-4R (direct setup)
T3 sequence (A0A2K5V556 entry or part of it limits assumed): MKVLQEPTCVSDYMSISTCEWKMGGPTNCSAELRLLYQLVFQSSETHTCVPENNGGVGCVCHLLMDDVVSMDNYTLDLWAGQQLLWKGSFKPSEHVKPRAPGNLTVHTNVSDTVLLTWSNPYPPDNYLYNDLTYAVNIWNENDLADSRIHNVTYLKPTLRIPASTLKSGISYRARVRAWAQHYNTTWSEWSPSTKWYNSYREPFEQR
Description: as §2

Marmoset IL-4R ECD = target: T4, Marmoset IL-4R ECD (marmoset (Callithrix jacchus), UniProt Q0PIT7 26-232); assay: SPR, direct setup: marmoset IL-4R ECD immobilized, scFv as analyte
T4 construct: also called marmoset monkey IL-4R
T4 sequence (Q0PIT7 entry or part of it limits assumed): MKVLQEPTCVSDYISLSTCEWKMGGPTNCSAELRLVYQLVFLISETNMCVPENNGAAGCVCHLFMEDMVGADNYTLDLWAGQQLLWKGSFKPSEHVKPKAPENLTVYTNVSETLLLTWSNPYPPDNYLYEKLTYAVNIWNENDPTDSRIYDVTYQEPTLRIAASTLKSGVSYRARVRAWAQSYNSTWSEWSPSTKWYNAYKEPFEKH
Description: as §2

Biotinylated IL-4R [3] = target: T5, Biotinylated IL-4R (human, UniProt P24394 26-232, limits assumed, biotinylated); assay: competitive ELISA: IL-4 coated, biotinylated IL-4R preincubated with scFv
T5 construct: also called human IL-4R; hIL-4R
Text: (§3) Bound biotinylated IL-4R was then detected using streptavidin-HRP.
Potency of humanized scFvs was further determined using a competitive ELISA.

Human IL-4R-Fc [4] = target: T6, Human IL-4R-Fc (human, UniProt P24394 26-232); assay: SPR (Biacore T200), human IL-4R-Fc captured via anti-human IgG-Fc, scFv as analyte, 1:1 model
T6 construct: not shown: Fc part (captured via anti-human IgG-Fc)
Description: as §1

Biotinylated IL-4R [5] = target: T5, Biotinylated IL-4R; assay: competitive ELISA: IL-4 coated, biotinylated IL-4R preincubated with scFv; remark: listed apart in the source
Text: as §3

cynomolgus IL-4R-Fc [6] = target: T1, cynomolgus IL-4R-Fc; assay: SPR, capture setup: cynomolgus IL-4R-Fc captured, scFv as analyte; remark: listed apart in the source
Human IL-4R-Fc [7] = target: T6, Human IL-4R-Fc; assay: SPR (Biacore T200), human IL-4R-Fc captured, scFv as analyte 0.12 to 90 nM, 1:1 model
Description: as §1
The scFvs were measured using a dose response multi-cycle kinetic assay with seven analyte concentrations ranging from 0.12 to 90 nM diluted in running buffer. Obtained sensorgrams were fitted using a 1:1 binding model.

IL-4R on HEK-Blue cells [8] = target: T2, IL-4R on HEK-Blue cells; assay: cell-based or functional assay; remark: listed apart in the source

Kd (cynomolgus IL-4R-Fc [1]) | koff (cynomolgus IL-4R-Fc [1]) | kon (cynomolgus IL-4R-Fc [1]) | IC50, neutralization of hIL-4-induced signaling in reporter gene assay (IL-4R on HEK-Blue cells [2]) | IC50, neutralization of hIL-13-induced signaling in reporter gene assay (IL-4R on HEK-Blue cells [2]) | rel. IC50 (IC50, dupilumab/IC50, test sample), hIL-4-induced signaling (IL-4R on HEK-Blue cells [2]) | rel. IC50 (IC50, dupilumab/IC50, test sample), hIL-13-induced signaling (IL-4R on HEK-Blue cells [2]) | Kd (cynomolgus IL-4R ECD) | koff (cynomolgus IL-4R ECD) | kon (cynomolgus IL-4R ECD) | Kd (Marmoset IL-4R ECD) | koff (Marmoset IL-4R ECD) | kon (Marmoset IL-4R ECD) | IC50 (Biotinylated IL-4R [3]) | rel. IC50 (IC50, dupilumab/IC50, test sample) (Biotinylated IL-4R [3]) | Kd (Human IL-4R-Fc [4]) | koff (Human IL-4R-Fc [4]) | kon (Human IL-4R-Fc [4]) | Binder | also measured
94.6 pM | 0.000182 s⁻¹ | 1.92e+06 M⁻¹ s⁻¹ | 1.44 ng/mL | 1.83 ng/mL | 0.39 ratio | 0.57 ratio | 681 pM | 0.000404 s⁻¹ | 594000 M⁻¹ s⁻¹ | 392 pM | 0.00105 s⁻¹ | 2.67e+06 M⁻¹ s⁻¹ | 0.54 ng/mL | 3.46 ratio | 5.5 pM | 1.95e-05 s⁻¹ | 3.55e+06 M⁻¹ s⁻¹ | PRO1517 (scFv, humanized scFv (VL-linker-VH), CDR graft of rabbit clone 44-34-C10; also called 44-34-C10-sc01; 44-34-C10 sc01) scFv: DIQMTQSPSSLSASVGDRVTITCQASEDIESYLAWYQQKPGKAPKLLIYRASTLAYGVPSRFSGSGSGTDFTLTISSLQPEDFATYYCLGSSYSTGSNIFGTGTKVTVLGGGGGSGGGGSGGGGSGGGGSEVQLVESGGGLVQPGGSLRLSCAASGFSSSSAHYMCWVRQAPGKGLEWIGCIYAGSRGSTYYASWAKGRFTISRDNSKNTVYLQMNSLRAEDTAVYYCARAAFVNRGVSWIWPYYFSLWGQGTLVTVSS | –
– | – | – | – | – | – | – | – | – | – | – | – | – | – | – | – | – | – | PRO1898 (scFv, optimized variant of PRO1517 (VL S14R, T87R, AHo numbering); scFv VL-linker-VH; also called 44-34-C10-sc08) scFv: DIQMTQSPSSLSARVGDRVTITCQASEDIESYLAWYQQKPGKAPKLLIYRASTLAYGVPSRFSGSGSGRDFTLTISSLQPEDFATYYCLGSSYSTGSNIFGTGTKVTVLGGGGGSGGGGSGGGGSGGGGSEVQLVESGGGLVQPGGSLRLSCAASGFSSSSAHYMCWVRQAPGKGLEWIGCIYAGSRGSTYYASWAKGRFTISRDNSKNTVYLQMNSLRAEDTAVYYCARAAFVNRGVSWIWPYYFSLWGQGTLVTVSS | IC50 (Biotinylated IL-4R [5]): 3.41 ng/mL; rel. IC50 (IC50, dupilumab/IC50, test sample) (Biotinylated IL-4R [5]): 1.95 ratio; Kd (cynomolgus IL-4R-Fc [6]): 90.8 pM; koff (cynomolgus IL-4R-Fc [6]): 0.000109 s⁻¹; kon (cynomolgus IL-4R-Fc [6]): 1.2e+06 M⁻¹ s⁻¹; Kd (Human IL-4R-Fc [7]): 7.91 pM; koff (Human IL-4R-Fc [7]): 1.7e-05 s⁻¹; kon (Human IL-4R-Fc [7]): 2.15e+06 M⁻¹ s⁻¹; IC50, neutralization of hIL-4 induced signaling in reporter gene assay (IL-4R on HEK-Blue cells [8]): 1 ng/mL; IC50, neutralization of hIL-13 induced signaling in reporter gene assay (IL-4R on HEK-Blue cells [8]): 1.15 ng/mL; rel. IC50 (IC50, dupilumab/IC50, test sample), hIL-4 induced signaling (IL-4R on HEK-Blue cells [8]): 1.15 ratio; rel. IC50 (IC50, dupilumab/IC50, test sample), hIL-13 induced signaling (IL-4R on HEK-Blue cells [8]): 0.87 ratio
165 pM | 0.000264 s⁻¹ | 1.6e+06 M⁻¹ s⁻¹ | 1.15 ng/mL | 2.3 ng/mL | 1.02 ratio | 0.99 ratio | 376 pM | 0.000238 s⁻¹ | 634000 M⁻¹ s⁻¹ | 787 pM | 0.00254 s⁻¹ | 3.23e+06 M⁻¹ s⁻¹ | 1.92 ng/mL | 0.98 ratio | 19.9 pM | 5.42e-05 s⁻¹ | 2.72e+06 M⁻¹ s⁻¹ | PRO1535 (scFv, humanized scFv (VL-linker-VH), Full graft of rabbit clone 44-34-C10; also called 44-34-C10-sc04; 44-34-C10 sc04) scFv: DIQMTQSPSSLSASVGDRVTITCQASEDIESYLAWYQQKPGKPPKLLIYRASTLAYGVPSRFSGSGSGTDFTLTISSLQPEDFATYYCLGSSYSTGSNIFGTGTKVTVLGGGGGSGGGGSGGGGSGGGGSESQLVESGGGLVQPGGSLRLSCAASGFSSSSAHYMCWVRQAPGKGLEWIACIYAGSRGSTYYASWAKGRFTISKDNSKNTVYLQMNSLRAEDTAVYFCARAAFVNRGVSWIWPYYFSLWGQGTLVTVSS | –
